Percent of parent data for 11 variants are collected here from PMC3438196.

The labels stand for the following.
B1: Apobec3G-GFP MAPPIT bait (pCEL-Apobec3G-GFP) [human] / Apobec3G MAPPIT prey (pMG2-Apobec3G) [human] (parent)
chain 1: MKPHFRNTVERMYRDTFSYNFYNRPILSRRNTVWLCYEVKTKGPSRPPLDAKIFRGQVYSELKYHPEMRFFHWFSKWRKLHRDQEYEVTWYISWSPCTKCTRDMATFLAEDPKVTLTIFVARLYYFWDPDYQEALRSLCQKRDGPRATMKIMNYDEFQHCWSKFVYSQRELFEPWNNLPKYYILLHIMLGEILRHSMDPPTFTFNFNNEPWVRGRHETYLCYEVERMHNDTWVLLNQRRGFLCNQAPHKHGFLEGRHAELCFLDVIPFWKLDLDQDYRVTCFTSWSPCFSCAQEMAKFISKNKHVSLCIFTARIYDDQGRCQEGLRTLAEAGAKISIMTYSEFKHCWDTFVDHQGCPFQPWDGLDEHSQDLSGRLRAILQNQEN
chain 2: B1 chain 1

The variants in this assay derive from B1. Nature of the assay: MAPPIT. The following applies: with Apobec3G MAPPIT prey (pMG2-Apobec3G) [human].
In the case of chain 1 W175R, the percent of parent was 28 % of WT.
To chain 1 K270E belongs 54 % of WT; to chain 1 W94R, 14 % of WT; to chain 1 Y222N, 7 % of WT.
To chain 1 W269G belongs 68 % of WT; to chain 1 D128G, 47 % of WT.
To chain 1 R78W belongs 18 % of WT; to chain 1 R24G, 5 % of WT; to chain 1 E191V, 40 % of WT.
chain 1 K63R: the percent of parent was 5 % of WT.
To chain 1 R30L belongs 10 % of WT.
